Test [1] deals with Wildtype (WT) BvPgb1.2, Class 1 phytoglobin from sugar beet (Beta vulgaris) (Beta vulgaris (sugar beet)). In words: SEC; analytical SEC, Superdex 75 10/300 GL, 50 mM NaP with 150 mM NaCl pH 7.0, 100 µL of 1 mg/mL protein; MW from retention volume on a calibration curve; dimer of monomers.
Another test deals with T1, BvPgb1.2 (Beta vulgaris, UniProt V5QR23).
T1 construct: gene Bv9_224250_aayd.t2; recombinant from E. coli BL21(DE3), pET-DEST42
In words: peroxidase assay, absorbance of ABTS radical cation at […] nm. In kind it is biochemical. Particulars: 10 mM H2O2, 5 mM ABTS, 50 mM Tris-HCl pH 8.5; protein incubated at 22 or 37 °C.

Test [2] concerns the target BvPgb1.2 Cys86Ala mutant (Beta vulgaris (sugar beet)). In words: SEC; analytical SEC, Superdex 75 10/300 GL, 50 mM NaP with 150 mM NaCl pH 7.0, 100 µL of 1 mg/mL protein; MW from retention volume on a calibration curve; dimer of monomers.

The text below walks through data of PMC9404779, “Oxidative Implications of Substituting a Conserved Cysteine Residue in Sugar Beet Phytoglobin BvPgb 1.2” (Antioxidants, 2022).

Where a name gives a salt, the structure may show the parent alone.

T1 sequence (V5QR23 1-171): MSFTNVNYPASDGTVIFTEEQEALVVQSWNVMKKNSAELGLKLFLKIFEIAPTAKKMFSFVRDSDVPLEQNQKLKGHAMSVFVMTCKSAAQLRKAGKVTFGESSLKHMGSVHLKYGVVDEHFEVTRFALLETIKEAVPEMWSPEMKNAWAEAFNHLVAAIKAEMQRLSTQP

Consider “Wildtype (WT) BvPgb1.2, Class 1 phytoglobin from sugar beet (Beta vulgaris) (natural protein)”, for which, in test [1], the degree of dimerization was above 99% and the stoichiometry N worked out at 2.
As for `CCn1c(=NN=c2sc3cc(S(=O)(=O)O)ccc3n2CC)sc2cc(S(=O)(=O)O)ccc21` [2,2′-azino-di-(3-ethylbenzthiazolinesulfonic acid) diammonium salt], at BvPgb1.2, the “peroxidase assay, absorbance of ABTS radical cation at 415 nm” value is recorded as “The detectable radical formation of ABTS was used in this study to quantify this”.
For the molecule “BvPgb1.2 Cys86Ala mutant (natural protein)”, in test [2], the degree of dimerization was above 99% and the stoichiometry N worked out at 2.
